# Patent US20060002929A1
# B1: Ab G (antibody, part only; not given: light chain, part only)
# heavy: MEFGLSWIFLAAILKGVQCEVQLVESGGGLVKPGGSLRLSCAASGFTFSNAWMSWVRQAPGKGLEWIGRIKSKTEGGTTDYGAPVKGRFTISRDDSKNTLYLQMNSLKTEDTAVYSCTTDFLWFGEFPFDYWGQGTLVTVSSASTKGPSVFPLAPCSRSTSESTAALGCLVKDYFPEPVTVSWNSGALTSGVHTFPAVLQSSGLYSLSSVVTVPSSNFGTQTYTCNVDHKPSNTKVDKTVERKCCVECPPCPAPPVAGPSVFLFPPKPKDTLMISRTPEVTCVVVDVSHEDPEVQFNWYVDGVEVHNAKTKPREEQFNSTFRVVSVLTVVHQDWLNGKEYKCKVSNKGLPAPIEKTISKTKGQPREPQVYTLPPSREEMTKNQVSLTCLVKGFYPSDIAVEWESNGQPENNYKTTPPMLDSDGSFFLYSKLTVDKSRWQQGNVFSCSVMHEALHNHYTQKSLSLSPGK
# Legend:
# Human Fc-OX40L (human) [1] = target: Human Fc-OX40L (human) (UniProt P23510); assay: BIAcore, immobilized hFc-OX40L
# Chain of Human Fc-OX40L (human) (P23510 51-183 limits assumed): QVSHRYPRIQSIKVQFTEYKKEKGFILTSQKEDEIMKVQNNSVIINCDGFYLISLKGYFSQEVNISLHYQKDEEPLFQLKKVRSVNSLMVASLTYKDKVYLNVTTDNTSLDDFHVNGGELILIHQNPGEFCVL
# Human Fc-OX40L (human) [2] = target: Human Fc-OX40L (human) (UniProt P23510); assay: cell-based or functional assay
binder,measurement,setting,value
B1,EC50,Human Fc-OX40L (human) [1],0.4 nM
same,"Costimulation Value (IC50), T cell proliferation (3H-thymidine)",Human Fc-OX40L (human) [2],3.2
same,IL-2 Inhibition (IC50 [nM]),Human Fc-OX40L (human) [2],0.22 nM
